{"source": "paper doi:10.1101/2024.02.25.581584", "about": "(bioRxiv, 2024)", "key": {"[1]": {"biological_target": "T1, CENP-T^6D (CENP-T^6D-GFP-Spy-tag) (human, UniProt Q96BT3 1-242, T11D | T27D | S47D | T85D | T195D | S201D)", "assay": "TIRF microscopy of clusters"}, "CENP-T^2D [2]": {"biological_target": "T2, CENP-T^2D (human, UniProt Q96BT3 1-242, T11D | T85D)", "assay": "TIRF microscopy of clusters"}, "CENP-T^site1 [3]": {"biological_target": "T3, CENP-T^site1 (human, UniProt Q96BT3 1-242, T11D | deletion of amino acids from 76 to 106)", "assay": "TIRF microscopy of single molecules"}, "[4]": {"biological_target": "T1, CENP-T^6D (CENP-T^6D-GFP-Spy-tag)", "assay": "TIRF microscopy of single molecules"}, "CENP-T^site1 [5]": {"biological_target": "T3, CENP-T^site1", "assay": "TIRF microscopy of single molecules", "remark": "listed apart in the source"}, "CENP-T^site2": {"biological_target": "CENP-T^site2 (human, UniProt Q96BT3 1-242, T85D | deletion of amino acids from 2 to 30)", "assay": "TIRF microscopy of single molecules"}, "CENP-T^2D [6]": {"biological_target": "T2, CENP-T^2D", "assay": "fluorescence correlation spectroscopy"}}}
{"binder": "Human Bonsai Ndc80 complex with C-terminal GFP (complex) chain 1: MKRSSVSSGGAGRLSMQELRSQDVNKQGLYTPQTKEKPTFGKLSINKPTSERKVSLFGKRTSGHGSRNSQLGIFSSSEKIKDPRPLNDKAFIQQCIRQLCEFLTENGYAHNVSMKSLQAPSVKDFLKIFTFLYGFLCPSYELPDTKFEEEVPRIFKDLGYPFALSKSSMYTVGAPHTWPHIVAALVWLIDCIKIHTAMKESSPLFDDGQPWGEETEDGIMHNKLFLDYTIKCYESFMSGADSFDEMNAELQSKLKDLFNVDAFKLESLEAKNRALNEQIARLEQERSTANKANAERLKRLQKSADLYKDRLGLEIRKIYGEKLQFIFTNIDPKNPESPFMFSLHLNEARDYEVSDSAPHLEGLAEFQENVRKTNNFSAFLANVRKAFTATVYN chain 2: METLSFPRYNVAEIVIHIRNKILTGADGKNLTKNDLYPNPKPEVLHMIYMRALQIVYGIRLEHFYMMPVNSEVMYPHLMEGFLPFSNLVTHLDSFLPICRVNDFETADILCPKAKRTSRFLSGIINFIHFREACRETYMEFLWQYKSSADKMQQLNAAHQEALMKLERLEKEVDEDTTVTIPSAVYVAQLYHQVSKIEWDYECEPGMVKGIHHGPSVAQPIHLDSTQLSRKFISDYLWSLVDTEW", "values": [{"measurement": "stoichiometry N", "setting": "[1]", "value": "≤ 2 Ndc80 molecules per CENP-T"}, {"measurement": "binding result", "setting": "CENP-T^2D [2]", "value": "binds"}, {"measurement": "fold reduction of kon of site 1 against CENP-T^2D and CENP-T^6D (model fit)", "setting": "CENP-T^site1 [3]", "value": 8, "unit": "fold"}, {"measurement": "stoichiometry N", "setting": "[4]", "value": "~2 Ndc80 molecules per CENP-T"}, {"measurement": "stoichiometry N", "setting": "CENP-T^site1 [5]", "value": "~1 Ndc80 molecules per CENP-T"}, {"measurement": "stoichiometry N", "setting": "CENP-T^site2", "value": "~1 Ndc80 molecules per CENP-T"}]}
{"binder": "Human Bonsai Ndc80 complex, untagged (complex) chain 1: MKRSSVSSGGAGRLSMQELRSQDVNKQGLYTPQTKEKPTFGKLSINKPTSERKVSLFGKRTSGHGSRNSQLGIFSSSEKIKDPRPLNDKAFIQQCIRQLCEFLTENGYAHNVSMKSLQAPSVKDFLKIFTFLYGFLCPSYELPDTKFEEEVPRIFKDLGYPFALSKSSMYTVGAPHTWPHIVAALVWLIDCIKIHTAMKESSPLFDDGQPWGEETEDGIMHNKLFLDYTIKCYESFMSGADSFDEMNAELQSKLKDLFNVDAFKLESLEAKNRALNEQIARLEQERSTANKANAERLKRLQKSADLYKDRLGLEIRKIYGEKLQFIFTNIDPKNPESPFMFSLHLNEARDYEVSDSAPHLEGLAEFQENVRKTNNFSAFLANVRKAFTATVYN chain 2: METLSFPRYNVAEIVIHIRNKILTGADGKNLTKNDLYPNPKPEVLHMIYMRALQIVYGIRLEHFYMMPVNSEVMYPHLMEGFLPFSNLVTHLDSFLPICRVNDFETADILCPKAKRTSRFLSGIINFIHFREACRETYMEFLWQYKSSADKMQQLNAAHQEALMKLERLEKEVDEDTTVTIPSAVYVAQLYHQVSKIEWDYECEPGMVKGIHHGPSVAQPIHLDSTQLSRKFISDYLWSLVDTEW", "values": [{"measurement": "binding result", "setting": "CENP-T^2D [6]", "value": "binds"}]}
